Measurements: the supplement of paper PMC10065799, “High-throughput profiling of sequence recognition by tyrosine kinases and SH2 domains using bacterial peptide display” (eLife, 2023)

Each sequence was assayed on c-Src (assay: phosphorylation enrichment, bacterial display (enrichment ratio); higher = better substrate or ligand; peptides without Tyr show the background).
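For SH2 binding enrichment of the phosphorylated peptide, bacterial display in this document: peptide library displayed on the E. coli surface as eCPX fusions, selected cells deep-sequenced, score is each peptide's frequency after selection divided by its frequency in the input.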
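For phosphorylation enrichment, bacterial display in this document: 11-residue human phosphosite peptides and single-mutation variants displayed on the E. coli surface, counted by deep sequencing, each peptide's frequency after selection divided by its frequency in the unselected input library; frequency after pTyr selection over input frequency; kinase dosed for 20-30% of maximal phosphorylation in three min.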

Row | Sequence | phosphorylation enrichment
1 | QWPGPYDRPGA [HNRNPH2_Y210_R206W] | 0.54
2 | EEGRVYVYRLS [ITGAE_Y549] | 0.698
3 | DHCNQYEQQKM [CHD7_Y75_Y72C] | 0.541
4 | RGFDTYFGYLL [ARSB_Y165] | 6.46
5 | LLREWYLQDPF [SIX3_Y225_YF] | 0.788
6 | PRNLIYFGEHP [TRPV6_Y201_C197R] | 1.08
7 | KKLEVYQSIAD [MYBPC3_Y548] | 0.798
8 | THQKSYQPGRK [CEFIP_Y210_N208K] | 0.322
9 | SSEFHYVGGFF [CTSC_Y347_YF] | 0.707
10 | FASTGYVIAIQ [GRIN2B_Y762_G763V] | 0.4
11 | QNVADYMRCLM [RPL5_Y207_Y210C] | 0.444
12 | IGNGYYFRVFS [MYBPC3_Y1136] | 0.359
13 | LYSINYLHFGD [KDM4C_Y201_E206D] | 3.68
14 | KGSEGYLAAIY [NF1_Y2503_T2507I] | 0.898
15 | KGSLPYNLILD [PKD1L2_Y406] | 0.542
16 | RRVLVYVGRGA [QDPR_Y16_G17V] | 0.788
17 | ENPAKYDDIKK [GAPDH_Y255_K251N] | 0.485
18 | IFLADCRIMEG [ALOX12B_Y318_Y318C_YF] | 0.525
19 | NVTRKYSRQIL [MAP3K2_Y463_T464S] | 0.403
20 | LNAGAYSKVVE [PPT1_Y172_Q177E] | 0.523
21 | KNNSIYVLANI [VNN1_Y134_V136L] | 1.58
22 | GHEYIYVDRMQ [PDGFRB_Y581_P584R] | 2.62
23 | TRSFKYLLLSM [NF1_Y491_YF] | 0.426
24 | SDVWSYGVTMW [ZAP70_Y525] | 0.54
25 | DVSVVCSEVKT [FCRL4_Y493_Y493C] | 0.594
26 | METKGYHSLPE [NR3C2_Y6] | 0.446
27 | TDLAFYLVCKG [ASL_Y376_R379C_YF] | 0.48
28 | FEGHSYSACTT [MMP9_Y241_R239H] | 0.59
29 | PESTLYRKFTT [NTRK1_Y701_I699T] | 0.467

These sequences were tested against Grb2 SH2 (UniProt P62993) (assay: SH2 binding enrichment of the phosphorylated peptide, bacterial display (enrichment ratio); higher = better substrate or ligand; peptides without Tyr show the background).
Chain of Grb2 SH2 (P62993 whole entry, looked up): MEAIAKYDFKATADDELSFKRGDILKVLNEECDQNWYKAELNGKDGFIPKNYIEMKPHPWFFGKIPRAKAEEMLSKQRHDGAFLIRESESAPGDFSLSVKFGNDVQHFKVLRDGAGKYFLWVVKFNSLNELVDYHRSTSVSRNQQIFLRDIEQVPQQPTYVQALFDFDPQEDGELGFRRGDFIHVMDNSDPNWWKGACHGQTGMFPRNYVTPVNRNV

Row | Sequence | SH2 binding enrichment
30 | QWPGPYDRPGA [HNRNPH2_Y210_R206W] | 0.885
31 | EEGRVYVYRLS [ITGAE_Y549] | 0.934
32 | DHCNQYEQQKM [CHD7_Y75_Y72C] | 0.971
33 | RGFDTYFGYLL [ARSB_Y165] | 1
34 | LLREWYLQDPF [SIX3_Y225_YF] | 1.42
35 | PRNLIYFGEHP [TRPV6_Y201_C197R] | 0.531
36 | KKLEVYQSIAD [MYBPC3_Y548] | 0.792
37 | THQKSYQPGRK [CEFIP_Y210_N208K] | 0.887
38 | SSEFHYVGGFF [CTSC_Y347_YF] | 0.688
39 | FASTGYVIAIQ [GRIN2B_Y762_G763V] | 0.94
40 | QNVADYMRCLM [RPL5_Y207_Y210C] | 0.912
41 | IGNGYYFRVFS [MYBPC3_Y1136] | 0.977
42 | LYSINYLHFGD [KDM4C_Y201_E206D] | 1.69
43 | KGSEGYLAAIY [NF1_Y2503_T2507I] | 0.911
44 | KGSLPYNLILD [PKD1L2_Y406] | 0.75
45 | RRVLVYVGRGA [QDPR_Y16_G17V] | 0.657
46 | ENPAKYDDIKK [GAPDH_Y255_K251N] | 0.702
47 | IFLADCRIMEG [ALOX12B_Y318_Y318C_YF] | 0.886
48 | NVTRKYSRQIL [MAP3K2_Y463_T464S] | 1.06
49 | LNAGAYSKVVE [PPT1_Y172_Q177E] | 0.758
50 | KNNSIYVLANI [VNN1_Y134_V136L] | 1.14
51 | GHEYIYVDRMQ [PDGFRB_Y581_P584R] | 0.878
52 | TRSFKYLLLSM [NF1_Y491_YF] | 1.05
53 | SDVWSYGVTMW [ZAP70_Y525] | 0.84
54 | DVSVVCSEVKT [FCRL4_Y493_Y493C] | 1.1
55 | METKGYHSLPE [NR3C2_Y6] | 0.786
56 | TDLAFYLVCKG [ASL_Y376_R379C_YF] | 0.732
57 | FEGHSYSACTT [MMP9_Y241_R239H] | 0.869
58 | PESTLYRKFTT [NTRK1_Y701_I699T] | 0.879

What follows are sequences tested against SHP2-C SH2 in the same assay as above.

Row | Sequence | SH2 binding enrichment
59 | QWPGPYDRPGA [HNRNPH2_Y210_R206W] | 0.789
60 | EEGRVYVYRLS [ITGAE_Y549] | 2.07
61 | DHCNQYEQQKM [CHD7_Y75_Y72C] | 0.879
62 | RGFDTYFGYLL [ARSB_Y165] | 1.42
63 | LLREWYLQDPF [SIX3_Y225_YF] | 2.31
64 | PRNLIYFGEHP [TRPV6_Y201_C197R] | 0.598
65 | KKLEVYQSIAD [MYBPC3_Y548] | 1.18
66 | THQKSYQPGRK [CEFIP_Y210_N208K] | 0.408
67 | SSEFHYVGGFF [CTSC_Y347_YF] | 0.607
68 | FASTGYVIAIQ [GRIN2B_Y762_G763V] | 1.07
69 | QNVADYMRCLM [RPL5_Y207_Y210C] | 0.725
70 | IGNGYYFRVFS [MYBPC3_Y1136] | 0.861
71 | LYSINYLHFGD [KDM4C_Y201_E206D] | 2.45
72 | KGSEGYLAAIY [NF1_Y2503_T2507I] | 0.606
73 | KGSLPYNLILD [PKD1L2_Y406] | 0.71
74 | RRVLVYVGRGA [QDPR_Y16_G17V] | 0.818
75 | ENPAKYDDIKK [GAPDH_Y255_K251N] | 0.888
76 | IFLADCRIMEG [ALOX12B_Y318_Y318C_YF] | 0.62
77 | NVTRKYSRQIL [MAP3K2_Y463_T464S] | 0.607
78 | LNAGAYSKVVE [PPT1_Y172_Q177E] | 1.08
79 | KNNSIYVLANI [VNN1_Y134_V136L] | 1.67
80 | GHEYIYVDRMQ [PDGFRB_Y581_P584R] | 0.859
81 | TRSFKYLLLSM [NF1_Y491_YF] | 1.21
82 | SDVWSYGVTMW [ZAP70_Y525] | 0.576
83 | DVSVVCSEVKT [FCRL4_Y493_Y493C] | 0.581
84 | METKGYHSLPE [NR3C2_Y6] | 0.475
85 | TDLAFYLVCKG [ASL_Y376_R379C_YF] | 0.461
86 | FEGHSYSACTT [MMP9_Y241_R239H] | 0.642
87 | PESTLYRKFTT [NTRK1_Y701_I699T] | 0.538

The sequences below were run against c-Src SH2 in the same assay as above.

Row | Sequence | SH2 binding enrichment
88 | QWPGPYDRPGA [HNRNPH2_Y210_R206W] | 1.33
89 | EEGRVYVYRLS [ITGAE_Y549] | 0.66
90 | DHCNQYEQQKM [CHD7_Y75_Y72C] | 0.825
91 | RGFDTYFGYLL [ARSB_Y165] | 0.417
92 | LLREWYLQDPF [SIX3_Y225_YF] | 0.978
93 | PRNLIYFGEHP [TRPV6_Y201_C197R] | 0.401
94 | KKLEVYQSIAD [MYBPC3_Y548] | 1.47
95 | THQKSYQPGRK [CEFIP_Y210_N208K] | 0.514
96 | SSEFHYVGGFF [CTSC_Y347_YF] | 0.376
97 | FASTGYVIAIQ [GRIN2B_Y762_G763V] | 0.742
98 | QNVADYMRCLM [RPL5_Y207_Y210C] | 0.624
99 | IGNGYYFRVFS [MYBPC3_Y1136] | 0.561
100 | LYSINYLHFGD [KDM4C_Y201_E206D] | 1.2
101 | KGSEGYLAAIY [NF1_Y2503_T2507I] | 0.54
102 | KGSLPYNLILD [PKD1L2_Y406] | 3.69
103 | RRVLVYVGRGA [QDPR_Y16_G17V] | 0.414
104 | ENPAKYDDIKK [GAPDH_Y255_K251N] | 1.39
105 | IFLADCRIMEG [ALOX12B_Y318_Y318C_YF] | 0.461
106 | NVTRKYSRQIL [MAP3K2_Y463_T464S] | 0.508
107 | LNAGAYSKVVE [PPT1_Y172_Q177E] | 2.03
108 | KNNSIYVLANI [VNN1_Y134_V136L] | 0.796
109 | GHEYIYVDRMQ [PDGFRB_Y581_P584R] | 0.746
110 | TRSFKYLLLSM [NF1_Y491_YF] | 1.05
111 | SDVWSYGVTMW [ZAP70_Y525] | 0.614
112 | DVSVVCSEVKT [FCRL4_Y493_Y493C] | 0.594
113 | METKGYHSLPE [NR3C2_Y6] | 0.769
114 | TDLAFYLVCKG [ASL_Y376_R379C_YF] | 0.388
115 | FEGHSYSACTT [MMP9_Y241_R239H] | 2.25
116 | PESTLYRKFTT [NTRK1_Y701_I699T] | 0.444
